Measurements from PMC6555819, “Comprehensive study of nuclear receptor DNA binding provides a revised framework for understanding receptor specificity”.

The binders below were run against RARa:RXRa (Homo sapiens, UniProt P10276;P19793 full;full) (assay: no ligand; PBM; 270 nM : 90 nM RXRa; PBS pH 7.4, 2% milk, 0.02% Triton X-100, 1 mM DTT, BSA, 0.4 mg/ml salmon testes DNA). Details: tags: His kept;His cleaved; copies: 1;1; label: surface-attached array probe.
Method in brief: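 Custom Agilent 4×180K protein-binding microarrays carried double-stranded probes, each with a 34-nt variable region. These regions held direct-repeat seeds, single-nucleotide variants, half-site ablations and random human genomic background sequences. Ligand-free nuclear receptor dimers were incubated on the arrays for 1 h, antibodies against each partner (one per run) detected binding, and scanned fluorescence was regression-normalized. Binding z-scores take the random background probes as reference.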

RARa:RXRa, sequence (P10276 whole entry, chain 1 of 2): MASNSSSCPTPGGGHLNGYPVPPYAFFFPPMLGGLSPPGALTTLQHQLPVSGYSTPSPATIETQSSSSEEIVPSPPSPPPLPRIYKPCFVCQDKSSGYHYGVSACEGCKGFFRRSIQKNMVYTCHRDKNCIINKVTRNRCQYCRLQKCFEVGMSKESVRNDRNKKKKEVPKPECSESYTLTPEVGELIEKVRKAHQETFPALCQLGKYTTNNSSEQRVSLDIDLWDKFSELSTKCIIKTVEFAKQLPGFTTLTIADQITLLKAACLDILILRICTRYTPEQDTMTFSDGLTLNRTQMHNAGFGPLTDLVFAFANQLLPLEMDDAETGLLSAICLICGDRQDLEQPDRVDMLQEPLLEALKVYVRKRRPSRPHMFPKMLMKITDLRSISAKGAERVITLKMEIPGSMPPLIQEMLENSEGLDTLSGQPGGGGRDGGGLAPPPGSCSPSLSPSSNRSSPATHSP
RARa:RXRa, sequence (P19793 whole entry, chain 2 of 2): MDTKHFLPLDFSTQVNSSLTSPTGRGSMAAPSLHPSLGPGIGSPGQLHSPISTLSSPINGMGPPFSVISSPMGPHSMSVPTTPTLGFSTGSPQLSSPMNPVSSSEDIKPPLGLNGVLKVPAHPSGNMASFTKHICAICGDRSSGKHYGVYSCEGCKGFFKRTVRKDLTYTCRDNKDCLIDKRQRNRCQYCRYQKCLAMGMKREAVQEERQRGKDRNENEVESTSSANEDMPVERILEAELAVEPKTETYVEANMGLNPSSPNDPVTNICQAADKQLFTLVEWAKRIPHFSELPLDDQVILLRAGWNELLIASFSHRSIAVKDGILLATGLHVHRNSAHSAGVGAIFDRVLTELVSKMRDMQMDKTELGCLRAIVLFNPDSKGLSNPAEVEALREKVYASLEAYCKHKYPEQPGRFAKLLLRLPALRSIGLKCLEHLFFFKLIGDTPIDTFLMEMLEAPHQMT

Binder | binding signal
NRC3_wobSeed6_DR0_T22C_o1 (dsDNA) DNA 1: GCCCTAGCAGGCCAGGGTCACCCAAGCATTTCGCTTGCGATTGACAGCGTAGAATGAAGG DNA 2: CCTTCATTCTACGCTGTCAATCGCAAGCGAAATGCTTGGGTGACCCTGGCCTGCTAGGGC | 3.89 PBM z-score against 500 random probes
NRC3_wobSeed137_DR5_T13A_o1 (dsDNA) DNA 1: GCATATGTAGGTAACATCCGGGTCATTCAGGCTATGGCGATTGACAGCGTAGAATGAAGG DNA 2: CCTTCATTCTACGCTGTCAATCGCCATAGCCTGAATGACCCGGATGTTACCTACATATGC | 3.23 PBM z-score against 500 random probes
NRC3_wobSeed93_DR3_A8G_o1 (dsDNA) DNA 1: GCAGTCAGAGTTCATCTAGGTAACGTAAGATATGCTGCGATTGACAGCGTAGAATGAAGG DNA 2: CCTTCATTCTACGCTGTCAATCGCAGCATATCTTACGTTACCTAGATGAACTCTGACTGC | 3.62 PBM z-score against 500 random probes
NRC3_wobSeed93_DR3_A9C_o1 (dsDNA) DNA 1: GCAGTCAACGTTCATCTAGGTAACGTAAGATATGCTGCGATTGACAGCGTAGAATGAAGG DNA 2: CCTTCATTCTACGCTGTCAATCGCAGCATATCTTACGTTACCTAGATGAACGTTGACTGC | 0.24 PBM z-score against 500 random probes
NRC3_wobSeed93_DR3_A18T_o1 (dsDNA) DNA 1: GCAGTCAAAGTTCATCTTGGTAACGTAAGATATGCTGCGATTGACAGCGTAGAATGAAGG DNA 2: CCTTCATTCTACGCTGTCAATCGCAGCATATCTTACGTTACCAAGATGAACTTTGACTGC | 3.45 PBM z-score against 500 random probes
NRC3_wobSeed5_DR0_T19A_o1 (dsDNA) DNA 1: GCCCTTACGGGTCAAGGTAATAGCACGGGTGGTACGGCGATTGACAGCGTAGAATGAAGG DNA 2: CCTTCATTCTACGCTGTCAATCGCCGTACCACCCGTGCTATTACCTTGACCCGTAAGGGC | 3.77 PBM z-score against 500 random probes
NRC3_wobSeed40_DR1_T15C_o1 (dsDNA) DNA 1: GCTAGCCTAGGTCACGGGCCAGTATACCACGCGAACGCGATTGACAGCGTAGAATGAAGG DNA 2: CCTTCATTCTACGCTGTCAATCGCGTTCGCGTGGTATACTGGCCCGTGACCTAGGCTAGC | 3.59 PBM z-score against 500 random probes
NRC3_wobSeed40_DR1_A24T_o1 (dsDNA) DNA 1: GCTAGCCTAGGTCATGGGCCAGTTTACCACGCGAACGCGATTGACAGCGTAGAATGAAGG DNA 2: CCTTCATTCTACGCTGTCAATCGCGTTCGCGTGGTAAACTGGCCCATGACCTAGGCTAGC | 3.16 PBM z-score against 500 random probes
NRC3_wobSeed66_DR2_A22C_o1 (dsDNA) DNA 1: GCAATACAGGGTCACTAGGCCCGAGTAGGTACGAATGCGATTGACAGCGTAGAATGAAGG DNA 2: CCTTCATTCTACGCTGTCAATCGCATTCGTACCTACTCGGGCCTAGTGACCCTGTATTGC | 3.99 PBM z-score against 500 random probes
NRC3_wobSeed66_DR2_G9C_o1 (dsDNA) DNA 1: GCAATACACGGTCACTAGGCCAGAGTAGGTACGAATGCGATTGACAGCGTAGAATGAAGG DNA 2: CCTTCATTCTACGCTGTCAATCGCATTCGTACCTACTCTGGCCTAGTGACCGTGTATTGC | 0.46 PBM z-score against 500 random probes
NRC3_wobSeed118_DR4_C7A_o1 (dsDNA) DNA 1: GCTTACAAAGGTGAGCTGAGGTCGTTGATCCAACTCGCGATTGACAGCGTAGAATGAAGG DNA 2: CCTTCATTCTACGCTGTCAATCGCGAGTTGGATCAACGACCTCAGCTCACCTTTGTAAGC | 3.12 PBM z-score against 500 random probes
NRC3_wobSeed99_DR4_A24C_o1 (dsDNA) DNA 1: GCTCTCGGAGGACACGAAAGGTCCGAGCTCGACATCGCGATTGACAGCGTAGAATGAAGG DNA 2: CCTTCATTCTACGCTGTCAATCGCGATGTCGAGCTCGGACCTTTCGTGTCCTCCGAGAGC | 0.41 PBM z-score against 500 random probes
NRC3_wobSeed36_DR1_T25C_o1 (dsDNA) DNA 1: GCCCGACTGGGGCAAAGGTTACCACACTCAGTACGAGCGATTGACAGCGTAGAATGAAGG DNA 2: CCTTCATTCTACGCTGTCAATCGCTCGTACTGAGTGTGGTAACCTTTGCCCCAGTCGGGC | 3.7 PBM z-score against 500 random probes
NRC3_wobSeed136_DR5_T27A_o1 (dsDNA) DNA 1: GCTAGCCTAGGTCATTCAGGGGCCAGAATAGAAAGCGCGATTGACAGCGTAGAATGAAGG DNA 2: CCTTCATTCTACGCTGTCAATCGCGCTTTCTATTCTGGCCCCTGAATGACCTAGGCTAGC | 3.51 PBM z-score against 500 random probes
NRC3_wobSeed130_DR5_T15A_o1 (dsDNA) DNA 1: GCCTCGAAAGGTCGAGCTCAGGTGAGTATACCAAACGCGATTGACAGCGTAGAATGAAGG DNA 2: CCTTCATTCTACGCTGTCAATCGCGTTTGGTATACTCACCTGAGCTCGACCTTTCGAGGC | 3.92 PBM z-score against 500 random probes
NRC3_wobSeed120_DR4_A6C_o1 (dsDNA) DNA 1: GCCCGCGTAGGTTACGAGGGGGCATTCAGTGCGAATGCGATTGACAGCGTAGAATGAAGG DNA 2: CCTTCATTCTACGCTGTCAATCGCATTCGCACTGAATGCCCCCTCGTAACCTACGCGGGC | 3.19 PBM z-score against 500 random probes
NRC3_wobSeed120_DR4_G21C_o1 (dsDNA) DNA 1: GCCCGAGTAGGTTACGAGGGCGCATTCAGTGCGAATGCGATTGACAGCGTAGAATGAAGG DNA 2: CCTTCATTCTACGCTGTCAATCGCATTCGCACTGAATGCGCCCTCGTAACCTACTCGGGC | 0.37 PBM z-score against 500 random probes

Binder | binding signal
NRC3_wobSeed120_DR4_G20T_o1 (dsDNA) DNA 1: GCCCGAGTAGGTTACGAGGTGGCATTCAGTGCGAATGCGATTGACAGCGTAGAATGAAGG DNA 2: CCTTCATTCTACGCTGTCAATCGCATTCGCACTGAATGCCACCTCGTAACCTACTCGGGC | 0.47 PBM z-score against 500 random probes
NRC3_wobSeed73_DR3_A23G_o1 (dsDNA) DNA 1: GCCAAACTAGGTCACAGAGGTCGAAGTCCGTGCGTAGCGATTGACAGCGTAGAATGAAGG DNA 2: CCTTCATTCTACGCTGTCAATCGCTACGCACGGACTTCGACCTCTGTGACCTAGTTTGGC | 4.06 PBM z-score against 500 random probes
NRC3_wobSeed142_DR5_G13T_o1 (dsDNA) DNA 1: GCATACCAAGGTTATCGTGAGGTCGTTGATACTAACGCGATTGACAGCGTAGAATGAAGG DNA 2: CCTTCATTCTACGCTGTCAATCGCGTTAGTATCAACGACCTCACGATAACCTTGGTATGC | 3.65 PBM z-score against 500 random probes
NRC3_wobSeed2_DR0_T12C_o1 (dsDNA) DNA 1: GCCCTAGTTGGCCAAGGTCACACACGCTATAGGTACGCGATTGACAGCGTAGAATGAAGG DNA 2: CCTTCATTCTACGCTGTCAATCGCGTACCTATAGCGTGTGTGACCTTGGCCAACTAGGGC | 3.86 PBM z-score against 500 random probes
NRC3_wobSeed32_DR1_A25C_o1 (dsDNA) DNA 1: GCTCTTGTAGATCAAAGGTTAAGACAGCCGAAGCCTGCGATTGACAGCGTAGAATGAAGG DNA 2: CCTTCATTCTACGCTGTCAATCGCAGGCTTCGGCTGTCTTAACCTTTGATCTACAAGAGC | 3.05 PBM z-score against 500 random probes
NRC3_wobSeed32_DR1_G18A_o1 (dsDNA) DNA 1: GCTCTTGTAGATCAAAGATTAAGAAAGCCGAAGCCTGCGATTGACAGCGTAGAATGAAGG DNA 2: CCTTCATTCTACGCTGTCAATCGCAGGCTTCGGCTTTCTTAATCTTTGATCTACAAGAGC | 0.26 PBM z-score against 500 random probes
NRC3_wobSeed82_DR3_G20T_o1 (dsDNA) DNA 1: GCATCGAAAGGTCGACGAGTTGAGTATACACCGTTTGCGATTGACAGCGTAGAATGAAGG DNA 2: CCTTCATTCTACGCTGTCAATCGCAAACGGTGTATACTCAACTCGTCGACCTTTCGATGC | 3 PBM z-score against 500 random probes
NRC3_wobSeed10_DR0_G6C_o1 (dsDNA) DNA 1: GCATCCAAAGGTCGAGGTGAGTATAGAGAAAGGGAAGCGATTGACAGCGTAGAATGAAGG DNA 2: CCTTCATTCTACGCTGTCAATCGCTTCCCTTTCTCTATACTCACCTCGACCTTTGGATGC | 3.47 PBM z-score against 500 random probes
NRC3_wobSeed10_DR0_C13A_o1 (dsDNA) DNA 1: GCATCGAAAGGTAGAGGTGAGTATAGAGAAAGGGAAGCGATTGACAGCGTAGAATGAAGG DNA 2: CCTTCATTCTACGCTGTCAATCGCTTCCCTTTCTCTATACTCACCTCTACCTTTCGATGC | 0.4 PBM z-score against 500 random probes
NRC3_wobSeed30_DR1_G16C_o1 (dsDNA) DNA 1: GCACTAGCAGGCCAACGGTCACTCAAGATTAGTCCGGCGATTGACAGCGTAGAATGAAGG DNA 2: CCTTCATTCTACGCTGTCAATCGCCGGACTAATCTTGAGTGACCGTTGGCCTGCTAGTGC | 0.08 PBM z-score against 500 random probes
NRC3_wobSeed42_DR1_T12A_o1 (dsDNA) DNA 1: GCTATACAGGGACAAAGGCCAGAGTACGAATGTCGAGCGATTGACAGCGTAGAATGAAGG DNA 2: CCTTCATTCTACGCTGTCAATCGCTCGACATTCGTACTCTGGCCTTTGTCCCTGTATAGC | 0.27 PBM z-score against 500 random probes
NRC3_wobSeed47_DR1_T18G_o1 (dsDNA) DNA 1: GCGGAACGAGGGCAAAGGTGATAGCATCTGTCGACGGCGATTGACAGCGTAGAATGAAGG DNA 2: CCTTCATTCTACGCTGTCAATCGCCGTCGACAGATGCTATCACCTTTGCCCTCGTTCCGC | 3.09 PBM z-score against 500 random probes
NRC3_wobSeed121_DR5_G21A_o1 (dsDNA) DNA 1: GCCAAACTAGGTCACCGGAAAGTCAAAGTCCGCATGGCGATTGACAGCGTAGAATGAAGG DNA 2: CCTTCATTCTACGCTGTCAATCGCCATGCGGACTTTGACTTTCCGGTGACCTAGTTTGGC | 3.41 PBM z-score against 500 random probes
NRC3_wobSeed89_DR3_C22T_o1 (dsDNA) DNA 1: GCCTATGTAGGTTAAGGGGGTTATTCAGTTTGAAAGGCGATTGACAGCGTAGAATGAAGG DNA 2: CCTTCATTCTACGCTGTCAATCGCCTTTCAAACTGAATAACCCCCTTAACCTACATAGGC | 3.33 PBM z-score against 500 random probes
NRC3_wobSeed43_DR1_C8A_o1 (dsDNA) DNA 1: GCCCAGAAAGGTGAAAGGTAACTCAGTCTGGTACGCGCGATTGACAGCGTAGAATGAAGG DNA 2: CCTTCATTCTACGCTGTCAATCGCGCGTACCAGACTGAGTTACCTTTCACCTTTCTGGGC | 3.8 PBM z-score against 500 random probes
NRC3_wobSeed124_DR5_C24G_o1 (dsDNA) DNA 1: GCCCTACTGGGCCATTCAGAGGTGATTGATCATATGGCGATTGACAGCGTAGAATGAAGG DNA 2: CCTTCATTCTACGCTGTCAATCGCCATATGATCAATCACCTCTGAATGGCCCAGTAGGGC | 0.45 PBM z-score against 500 random probes
